The values that follow come from publication PMC2975869.

The target in assay [1] is endogenous PTH1R of A10 cells (rat (endogenous in A10)) (UniProt P25961). Kind of assay: radioligand binding.
For assay [2], the target named is HA-tagged PTH1R (parathyroid hormone type 1 receptor), wild type (UniProt Q03431). In words: radioligand binding.
Assay [3] concerns the target endogenous PTH1R of A10 cells (rat (endogenous in A10)) (UniProt P25961).

Chain of UniProt P25961 (P25961 27-591): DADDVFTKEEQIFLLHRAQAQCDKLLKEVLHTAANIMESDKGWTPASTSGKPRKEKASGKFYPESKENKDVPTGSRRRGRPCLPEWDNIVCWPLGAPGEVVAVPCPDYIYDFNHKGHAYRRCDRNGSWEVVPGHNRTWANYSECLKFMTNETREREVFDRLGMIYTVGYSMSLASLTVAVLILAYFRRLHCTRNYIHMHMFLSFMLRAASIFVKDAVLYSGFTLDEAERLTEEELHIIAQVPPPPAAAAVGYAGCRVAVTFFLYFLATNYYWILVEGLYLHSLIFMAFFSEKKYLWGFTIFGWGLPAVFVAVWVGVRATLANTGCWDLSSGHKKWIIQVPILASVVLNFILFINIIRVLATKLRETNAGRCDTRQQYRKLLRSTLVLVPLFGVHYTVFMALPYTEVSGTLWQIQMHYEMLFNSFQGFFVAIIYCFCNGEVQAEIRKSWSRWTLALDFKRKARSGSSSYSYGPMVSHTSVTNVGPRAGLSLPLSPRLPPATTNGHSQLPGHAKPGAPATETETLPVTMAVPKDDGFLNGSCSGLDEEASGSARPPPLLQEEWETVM

In assay [1], [125I]-PTH(1-34)NH2 (peptide) showed a Total Binding (TB), cells transfected with EBP50 of 2470 and a Total Binding (TB), cells transfected with pcDNA3 of 1550. In assay [2], the Total Binding (TB), cells co-transfected with EBP50 came out at 1980 and the Total Binding (TB), cells co-transfected with pcDNA3 came to 1290.
The substance PTHrP (1-36)-NH2 (peptide) returned a cAMP production in A10 cells in response to PTHrP(1-36), 30 min at 37 °C in assay [3] of 3 fold.
